Experimental data taken from patent publication US20230348616A1 (MIE UNIVERSITY, published 2023).

Assays:
1F = biological target: T1, 1F; test: flow cytometry on peptide-pulsed T2 cells, scFv 100 nM
T1 construct: also called HLA-A2 / point-mutant NY-ESO peptide 1F complex on T2 cells

9A [1] = biological target: T2, 9A; test: as above
T2 construct: also called HLA-A2 / point-mutant NY-ESO peptide 9A complex on T2 cells

8A = biological target: T3, 8A; test: as above
T3 construct: also called HLA-A2 / point-mutant NY-ESO peptide 8A complex on T2 cells

6L [2] = biological target: T4, 6L; test: as above
T4 construct: also called HLA-A2 / point-mutant NY-ESO peptide 6L complex on T2 cells

7F = biological target: T5, 7F; test: as above
T5 construct: also called HLA-A2 / point-mutant NY-ESO peptide 7F complex on T2 cells

5A [3] = biological target: T6, 5A; test: as above
T6 construct: also called HLA-A2 / point-mutant NY-ESO peptide 5A complex on T2 cells

4A [4] = biological target: T7, 4A; test: as above
T7 construct: also called HLA-A2 / point-mutant NY-ESO peptide 4A complex on T2 cells

2M [5] = biological target: T8, 2M; test: as above
T8 construct: also called HLA-A2 / point-mutant NY-ESO peptide 2M complex on T2 cells

3A [6] = biological target: T9, 3A; test: as above
T9 construct: also called HLA-A2 / point-mutant NY-ESO peptide 3A complex on T2 cells

2M [7] = biological target: T10, 2M; test: flow cytometry, CD3e knockout T2 cells pulsed with 50 µM peptide, antibody at 100 nM, PE anti-human IgG; gMFI standardized to the HLA/peptide amount; DMSO-only cells 1.15
T10 construct: also called HLA-A2 / point-mutant NY-ESO peptide 2M complex on CD3e knockout T2 cells
Description: (§1) The cells were washed 2 times in PBS containing 5% FBS, PE conjugated F(ab′)2 Fragment Anti-Human IgG (Jackson Immuno Research Laboratories) diluted with PBS containing 5% FBS was added at 25 μl/well, and the resultant was allowed to stand at 4° C. for 30 minutes. The cells were washed 2 times in PBS containing 5% FBS, immobilized with Mildform 10 N (FUJIFILM Wako Pure Chemical Corporation) overnight, and resuspended in PBS containing 5% FBS. […] The cells were washed 2 times in PBS containing 5% FBS, immobilized with Mildform 10 N (FUJIFILM Wako Pure Chemical Corporation) overnight, and resuspended in PBS containing 5% FBS. The cell suspensions were subjected to detection using a flow cytometer (CantoII, Becton Dickinson). […] The standardized gMFI indicating the binding affinity of each Fc-conjugated anti-HLA-A2/NY-ESO-anti-CD3 bispecific molecule standardized with the amount of the HLA/peptide complex on the CD3e knockout T2 cells was determined in accordance with the following equation.

4A [8] = biological target: T11, 4A; test: as above
T11 construct: also called HLA-A2 / point-mutant NY-ESO peptide 4A complex on CD3e knockout T2 cells
Description: as §1

5A [9] = biological target: T12, 5A; test: as above
T12 construct: also called HLA-A2 / point-mutant NY-ESO peptide 5A complex on CD3e knockout T2 cells
Description: as §1

9A [10] = biological target: T13, 9A; test: as above
T13 construct: peptide added to CD3e knockout T2 cells at 50 µM; also called HLA-A2 / point-mutant NY-ESO peptide 9A complex on CD3e knockout T2 cells
Description: as §1

3A [11] = biological target: T14, 3A; test: as above
T14 construct: also called HLA-A2 / point-mutant NY-ESO peptide 3A complex on CD3e knockout T2 cells
Description: as §1

6L [12] = biological target: T15, 6L; test: as above
T15 construct: also called HLA-A2 / point-mutant NY-ESO peptide 6L complex on CD3e knockout T2 cells
Description: as §1

[13] = biological target: T16, HLA-A*0201/β2-microglobulin/NY-ESO peptide complex (human, biotinylated with E. coli biotin ligase at the added recognition sequence (biotinylated form used in the ELISA)); test: screening of NYA-0001 mutant phage libraries
T16 construct: also called HLA/NY-ESO; HLA-A2/NY-ESO

Row | Binder | standardized gMFI (1F) | standardized gMFI (9A [1]) | standardized gMFI (8A) | standardized gMFI (6L [2]) | standardized gMFI (7F) | standardized gMFI (5A [3]) | standardized gMFI (4A [4]) | standardized gMFI (2M [5]) | standardized gMFI (3A [6]) | standardized gMFI (2M [7]) | standardized gMFI (4A [8]) | standardized gMFI (5A [9]) | standardized gMFI (9A [10]) | standardized gMFI (3A [11]) | standardized gMFI (6L [12]) | binding result [13]
1 | NYA-2060 (scFv, also called NYA-2060 tag adduct) scFv: GEVQLVESGGGLVQPGGSLRLSCAASGFSIRSYDIHWVRQAPGKGLEWVATISYDGSQKYYADSVKGRFTISRDESKNTLYLQMNSLRAEDTAVYHCARGSSGHYEAFDIWGQGTLVTVSSGGGGSGGGGSGGGGSQSVLTQPPSVSAAPGQKVTISCSGSSSNIGNWYVSWYQQLPGTAPKLLIYDNNKRPSGIPDRFSGSKSGTSATLGITGLQTGDEADYYCGTWDSSLSAPWVFGGGTKVTVLGAAAGAGGDYKDDDDKGAAAHHHHHH | 0.52 | 9.48 | 6.18 | 7.94 | 2.51 | 0.7 | 0.73 | 6.93 | 5.51 |  |  |  |  |  |  | 
2 | NYA-2061 (scFv, also called NYA-2061 tag adduct) scFv: GEVQLVESGGGLVQPGGSLRLSCAASGFSIRSYDIHWVRQAPGKGLEWVATISYDGSQKYYADSVKGRFTISRDESKNTLYLQMNSLRAEDTAVYHCARGSSGHYEAFDIWGQGTLVTVSSGGGGSGGGGSGGGGSQSVLTQPPSASGTPGQRVTISCSGSSSNIGNWYVSWYQQLPGTAPKLLIYDNNKRPSGVPDRFSGSKSGTSASLAISGLQSEDEADYYCGTWDSSLSAPWVFGGGTKLTVLGAAAGAGGDYKDDDDKGAAAHHHHHH | 0.54 | 9.16 | 5.22 | 7.13 | 2.04 | 0.66 | 0.59 | 7.17 | 4.73 |  |  |  |  |  |  | 
3 | NYC-0003 (scFv, not shown: small tags and cut ends, also called 3M4E5 scFv; NYC-0003 tag adduct) scFv: EVQLLESGGGLVQPGGSLRLSCAASGFTFSTYQMSWVRQAPGKGLEWVSGIVSSGGSTAYADSVKGRFTISRDNSKNTLYLQMNSLRAEDTAVYYCAGELLPYYGMDVWGQGTTVTVSSGGGGSGGGGSGGGGSQSELTQPRSVSGSPGQSVTISCTGTSRDVGGYNYVSWYQQHPGKAPKLIIHDVIERSSGVPDRFSGSKSGNTASLTISGLQAEDEADYYCWSFAGSYYVFGTGTDVTVL | 3.28 | 4.77 | 3.42 | 4.14 | 3.99 | 0.69 | 0.76 | 3.73 | 4.34 |  |  |  |  |  |  | 
4 | NYA-2027 (scFv) scFv: GEVQLVESGGGVVQPGRSLTPSCSASGFSIRSYDIHWVRQAPGKGLEWVATISYDGSQKYFADSVKGRFTIFRDESENMVYLQMSGLRVEDTAVYHCARGSSGHYEAFDIWGQGTMVTVSSGGGGSGGGGSGGGGSQSVLTQPPSVSAAPGQKVTISCSGSSSNIGNNYVSWYQQLPGTAPKLLIYDNNKRPSGIPDRFSGSKSGTSATLGITGLQTGDEADYYCGSWDSSLSAPWVFGGGTKVTVLGAAAGAGGDYKDDDDKGAAAHHHHHH | 0.57 | 6.9 | 9.47 | 7.85 | 5.41 | 0.75 | 0.99 | 7.84 | 9.91 |  |  |  |  |  |  | 
5 | NYZ-1010 (bispecific antibody, human IgG1, lambda, L234A L235A) chain 1: not shown chain 2: not shown light: NFMLTQPSSVSGVPGQRVTISCTGNTGNIGSNYVNWYQQLPGTAPKLLIYRDDKRPSGVPDRFSGSKSGTSASLAITGFQAEDEADYYCQSYSSGFIFGGGTKLTVLGQPKAAPSVTLFPPSSEELQANKATLVCLISDFYPGAVTVAWKADSSPVKAGVETTTPSKQSNNKYAASSYLSLTPEQWKSHRSYSCQVTHEGSTVEKTVAPTECS |  |  |  |  |  |  |  |  |  | 39.5 | 1.05 | 1.02 | 51.9 | 21.3 | 37.6 | 
6 | NYA-0060 (scFv, V domains shown, NYA-0001 mutant from a phage library) VH: EVQLVESGGGVVQPGRSLTPSCSASGFSIRSYDIHWVRLAPGKGLEWVATISYDGSQKYFADSVKGRFTIFRDESENMVYLQMSGLRVEDTAVYHCARGSSGHYEAFDIWGQGTMVTVSS VL: QSVLTQPPSVSAAPGQKVTISCSGSSSNIGNNYVSWYQQLPGTAPKLLIYDNNKRPSGIPDRFSGSKSGTSATLGITGLQTGDEADYYCGTWDSSLSAPWVFGGGTKVTVL |  |  |  |  |  |  |  |  |  |  |  |  |  |  |  | binds
7 | NYA-0068 (scFv, V domains shown, NYA-0001 mutant from a phage library) VH: EVQLVESGGGVVQPGRSLTPSCSASGFSIRSYDIHWVRQAPGKGLEWVATISYDGSQKYFADSVKGRFTIFRDESENMVYLQMSGLRVEDTAVYHCARGSSGHYEAFDIWGQGTMVTVSS VL: QSVLTQPPSVSAAPGQKVTISCSGSSSNIGNWYVSWYQQLPGTAPKLLIYDNNKRPSGIPDRFSGSKSGTSATLGITGLQTGDEADYYCGTWDSSLSAPWVFGGGTKVTVL |  |  |  |  |  |  |  |  |  |  |  |  |  |  |  | binds
8 | NYA-0082 (scFv, V domains shown, NYA-0001 mutant from a phage library) VH: EVQLVESGGGVVQPGRSLTPSCSASGFSIRSYDIHWVRQAPGKGLEWVATISYDGSQKYFADSVKGRFTIFRDESENMVYLQMSGLRVEDTAVYHCARGSSGHYEAFDIWGQGTMVTVSS VL: QSVLTQPPSVSAAPGQKVTISCSGSSSNIGNNYVSWYQRLPGTAPKLLIYDNNKRPSGIPDRFSGSKSGTSATLGITGLQTGDEADYYCGSWDSSLSAPWVFGGGTKVTVL |  |  |  |  |  |  |  |  |  |  |  |  |  |  |  | binds
